Legend:
[1] = biological target: T1, c-erbB-2 (extract of SK-Br-3 breast cancer cells coated on the plate) (UniProt P04626 23-1255); assay: competition ELISA, SK-Br-3 extract on plate, 520C9-HRP probe as competitor
T1 construct: Crude detergent extract of the cells, not purified protein; also called c-erbB-2 antigen
Protocol: In order to prepare c-erbB-2, SK-Br-3 breast cancer cells (Ring et al., 1989, Cancer Res. 49: 3070–3080), were harvested and resuspended in 10 mM NaCl, 0.5% Nonidet-P40, pH 8. Insoluble debris was removed by centrifugation and the extract filtered through 0.45 Millex HA and 0.2 Millex GV filters. 40µl of the extract was added to each well of a 96 well plate and incubated overnight at 37° C. The plates then were washed with PBS and non-specific binding sites blocked following the addition of PBS containing 1% skim milk by incubation for one hour at room temperature. The sFv and 520C9 Fab samples, diluted in PBS, were added to the wells and incubated for 30 mins at room temperature. A control containing only dilution buffer was also included.
In order to quantitate the reaction, 20µl of a 520C9-horseradish peroxidase (HRP) probe (Zymed Labs., South San Francisco, Calif.), diluted to 14 µl/ml in PBS containing 1% skim milk, was added to each well and incubated for one hour at room temperature. The plate was then washed four times with PBS, the peroxidase substrate added and incubated for 30 minutes at room temperature. The reaction was quenched with H_2SO_4 and the […] values measured.

[2] = biological target: T2, c-erbB-2 extracellular domain (ECD) with His6 peptide, attached to agarose beads (UniProt P04626 23-652, limits assumed); assay: affinity chromatography on c-erbB-2 ECD-agarose
T2 construct: extracellular domain; Expressed in CHO cells, purified by IMAC, coupled to agarose beads
Excerpt: The refolded 26-10 sFv' polypeptide chains were purified by ouabain-Sepharose affinity chromatography, as described for the 26-10 sFv constructs (Huston, et. al., 1988, *Proc. Natl Acad. Sci. USA* 85; 5879–5883 and Tai, et al., 1990, *Biochem.* 29, 8024–[…], both of which are hereby incorporated by reference). The refolded 520C9 sFv polypeptide chain was similarly purified using a c-erbB-2-agarose affinity column. […] The buffer was then exchanged by dialysis. The c-erbB-2 affinity column preferably was prepared by linking the extracellular domain of c-erbB-2 onto agarose beads.

[3] = biological target: T2, c-erbB-2 extracellular domain (ECD) …; assay: affinity chromatography on c-erbB-2 ECD-agarose, eluted with 5M LiCl
Protocol: The (sFv')_2 heterodimers can be separated by a two step affinity chromatography procedure taking advantage of the bivalent nature of the dimer. For instance, during the purification of the 741F8/26-10 heterodimer the mixture initially was loaded onto an ouabain-Sepharose column, washed with a PBS, 1 M NaCl buffer, to remove any non-specifically adsorbed material, and rewashed with PBS to reduce the salt concentration. The reactive 26-10 sFv' species bound to the resin were eluted with 20 mM ouabain in PBS and the eluate dialyzed against PBS to remove the cardiac glycoside. The 741F8/26-10 heterodimers were then repurified on a c-erbB-2-agarose affinity column taking advantage of the ECD binding site in the heterodimer. […] Prior to use, the buffer was exchanged with PBS by dialysis.

B1: 520C9 sFv single-chain binding protein (scFv)
scFv: EIQLVQSGPELKKPGETVKISCKASGYTFANYGMNWMKQAPGKGLKWMGWINTYTGQSTYADDFKERFAFSLETSATTAHLQINNLRNEDSATYFCARRFGFAYWGQGTLVSVSASISSSSGSSSSGSSSSGSDIQMTQSPSSLSASLGERVSLTCRASQDIGNSLTWLQQEPDGTIKRLIYATSSLDSGVPKRFSGSRSGSDYSLTISSLESEDFVVYYCLQYAIFPYTFGGGTNLEIKRAD
notes: also called biosynthetic 520C9 sFv
B1: binds [1]; binds [2].

B2: 741F8/26-10 (sFv')2 heterodimer (bispecific antibody)
scFv 1: MAEIQLVQSGPELKKPGETVKISCKASGYTFTNYGMNWVKQAPGKGLKWMGWINTNTGEPTYAEEFKGRFAFSLETSASTAYLQINNLKNEDTATYFCGRQFITYGGFANWGQGTLVTVSASSSSGSSSSGSSSSDIVMTQSPKFMSTSVGDRVSISCKASQDVSTAVAWYQQKPGQSPKLLIYWTSTRHTGVPDRFTGSGSGTDYTLTISSVQAEDLALHYCQQHYRVPYTFGGGTKLEIKRADGGGGC
scFv 2: MEVQLQQSGPELVKPGASVRMSCKSSGYIFTDFYMNWVRQSHGKSLDYIGYISPYSGVTGYNQKFKGKATLTVDKSSSTAYMELRSLTSEDSAVYYCAGSSGNKWAMDYWGHGASVTVSSSGSSSSGSSSSGSDVVMTQTPLSLPVSLGDQASISCRSSQSLVHSNGNTYLNWYLQKAGQSPKLLIYKVSNRFSGVPDRFSGSGSGTDFTLKISRVEAEDLGIYFCSQTTHVPPTFGGGTKLEIKRSGGGGC
modifications: C-terminal cysteine of the (Gly)4-Cys tail disulfide linked to the other chain
notes: Made by reacting 26-10 sFv'-TNB with reduced 741F8 sFv'; also called 741F8/26-10 heterodimer
B2: binds [3].

B3: Fab fragment of the 520C9 monoclonal antibody (Fab, V domains shown)
VH: EIQLVQSGPELKKPGETVKISCKASGYTFANYGMNWMKQAPGKGLKWMGWINTYTGQSTYADDFKERFAFSLETSATTAHLQINNLRNEDSATYFCARRFGFAYWGQGTLVSVSA
VL: DIQMTQSPSSLSASLGERVSLTCRASQDIGNSLTWLQQEPDGTIKRLIYATSSLDSGVPKRFSGSRSGSDYSLTISSLESEDFVVYYCLQYAIFPYTFGGGTNLEIK
notes: Fab of the parental murine monoclonal antibody 520C9; The limits of VH (1-115) are derived from the printed linker position; also called 520C9 Fab; parental 520C9 Fab fragment
B3: binds [1].
